Reference: publication PMC7913596, “Tribbles Pseudokinase 2 (TRIB2) Regulates Expression of Binding Partners in Bovine Granulosa Cells” (International Journal of Molecular Sciences, 2021)

How the values were obtained:
[1] = target: pAcGFP1-53 (positive control bait) (UniProt P02340); experiment: co-IP; Matchmaker Co-IP system in co-transfected HEK 293 cells (pAcGFP1 bait, ProLabel prey); read-out by ProLabel enzyme complementation, luminescence (RLU); fold induction 60 min after substrate against the experimental control (pAcGFP1-TRIB2 and ProLabel-empty vector)
pAcGFP1-53 (positive control bait), sequence (P02340 whole entry, the tested form may be a part): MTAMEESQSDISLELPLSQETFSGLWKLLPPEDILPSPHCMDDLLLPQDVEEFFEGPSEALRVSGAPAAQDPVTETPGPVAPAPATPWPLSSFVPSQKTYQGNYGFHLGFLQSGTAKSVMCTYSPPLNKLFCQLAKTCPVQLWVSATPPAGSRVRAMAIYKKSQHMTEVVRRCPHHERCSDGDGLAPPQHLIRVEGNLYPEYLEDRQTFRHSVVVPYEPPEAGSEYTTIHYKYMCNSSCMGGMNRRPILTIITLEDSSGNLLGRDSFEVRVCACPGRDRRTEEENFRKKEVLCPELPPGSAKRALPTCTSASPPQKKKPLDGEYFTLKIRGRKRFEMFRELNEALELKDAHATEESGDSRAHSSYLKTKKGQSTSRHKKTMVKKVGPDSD

[2] = target: T1, Tribbles pseudokinase 2 (TRIB2), AcGFP1 fusion in HEK 293 cells (pAcGFP1-TRIB2) (bovine, UniProt Q5GLH2 1-343); experiment: as above; details: partners not purified
T1 construct: bovine TRIB2 (NM_178317.3); also called TRIB2 bait plasmid; source: HEK 293, transfected, in lysate
T1 sequence (looked up): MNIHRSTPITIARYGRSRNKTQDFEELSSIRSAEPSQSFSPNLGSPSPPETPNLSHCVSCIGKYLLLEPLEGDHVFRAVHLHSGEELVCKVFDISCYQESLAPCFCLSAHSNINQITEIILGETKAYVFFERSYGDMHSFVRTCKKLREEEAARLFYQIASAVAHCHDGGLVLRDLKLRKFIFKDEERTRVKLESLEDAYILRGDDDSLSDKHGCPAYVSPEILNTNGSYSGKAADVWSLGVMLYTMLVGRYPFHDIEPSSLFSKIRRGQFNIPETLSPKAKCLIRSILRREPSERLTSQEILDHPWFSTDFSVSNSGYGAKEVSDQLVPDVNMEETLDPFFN

“ProLabel-T (positive control prey) (natural protein)” was tested. Which fold induction of ProLabel enzymatic activity against the experimental control [1] did it give?
Its fold induction of ProLabel enzymatic activity against the experimental control is 4.7 fold.

B1: inositol polyphosphate phosphatase-like 1 (INPPL1), ProLabel prey in HEK 293 cells (natural protein, Bos taurus, UniProt E1BBJ7 1-1264, looked up)
chain: MASACGAPGPGGAGPGAALGSPAPAWYHRDLSRAAAEELLARAGRDGSFLVRDSESVAGAFALCVLYQKHVHTYRILPDGEDFLAVQTSQGVPVRRFQTLGELISLYAQPNQGLVCALLLPVEREREPDPPDDRDASDGEDEKPPLPPRSGSTSISAPMGPSSPPAAPETPTTPAAESAPNGLSTVSHEYLKGSYGLDLEAVRGGASNLPHLTRTLATSCRRLHSEVDKVLSGLEILSKVFDQQSSPMVTRLLQQQNPPQTGEQELESLVLKLSVLKDFLSGIQKKALKALQDMSSTAPPAPLQPSTRKAKTIPVQAFEVKLDVTLGDLTKIGKSQKFTLSVDVEGGRLVLLRRQRDSQEDWTTFTHDRIRQLIKSQRVQNKLGVVFEKEKDRTQRKDFIFVSARKREAFCQLLQLMKNKHSKQDEPDMISIFIGTWNMGSVPPPKNVTSWFTSKGLGKTLDEVTVTIPHDIYVFGTQENSVGDREWLDLLRGGLKELTDLDYRPIAMQSLWNIKVAVLVKPEHENRISHVSTSSVKTGIANTLGNKGAVGVSFMFNGTSFGFVNCHLTSGNEKTARRNQNYLDILRLLTLGDRQLSAFDISLRFTHLFWFGDLNYRLDMDIQEILNYISRKEFEPLLRVDQLNLEREKHKVFLRFSEEEISFPPTYRYERGSRDTYAWHKQKPTGVRTNVPSWCDRILWKSYPETHIICNSYGCTDDIVTSDHSPVFGTFEVGVTSQFISKKGLSKTSDQAYIEFESIEAIVKTASRTKFFIEFYSTCLEEYKKSFENDAQSSDNINFLKVQWSSRQLPTLNPILADIEYLQDQHLLLTVKSMDGYESYGECVVALKSMIGSTAQQFLTFLSHRGEETGNIRGSMKVRVPTERLGTRERLYEWISIDKDEAGAKSKAPSVSRGSQDPRSGSRKPASTEASCPLSKLFEEPEKPPPTGRPPAPPRAAPREEPLTPRLKPEGAPELEGVVAPPPKNSFNNPAYYVLEGVPHQLLPPEPPSPARAPVPPATKNKVAITVPAPQLGRHRPPRAGEGSSSDEDSGGTLPPPDFPPPPLPDSAIFLPPGLDPLPGPVIRGRSGGEARGPPPPKAHPRPPLPPGPSPASTFLGDVASGDDRSCSVLQMAKTLSEVDYAPAGPGRAMLLPGPLELQPPRGLPSDYGRPLSFPPPRIRESIQEDLAEEAPCPQVGRAGGLGEAGMGAWLRAIGLERYEEGLVHNGWDDLEFLSDITEEDLEEAGVQDPAHKRLLLDTLQLSK
notes: Bos taurus inositol polyphosphate phosphatase-like 1; Bands at around 50 kDa and 100 kDa after co-IP, around 160 kDa in extracts not subjected to co-IP; The insert may be the cDNA fragment found in the two-hybrid screen; also called SHIP2; SH2-containing inositol 5'-phosphatase 2; source: HEK 293, transfected, in lysate
With B1 as the molecule, how does the “fold induction of ProLabel enzymatic activity against the experimental control” value [2] read?
Its value is 2.3 fold.

B2: inhibin subunit beta A (INHBA), ProLabel prey in HEK 293 cells (natural protein, Bos taurus, UniProt P07995 21-425, looked up)
chain: SPTPGSEGHSAAPDCPSCALATLPKDVPNSQPEMVEAVKKHILNMLHLKKRPDVTQPVPKAALLNAIRKLHVGKVGENGYVEIEDDIGRRAEMNELMEQTSEIITFAESGTARKTLHFEISKEGSDLSVVERAEIWLFLKVPKANRTRSKVTIRLFQQQKHLQGSLDAGEEAEEVGLKGEKSEMLISEKVVDARKSTWHIFPVSSCIQRLLDQGKSSLDIRIACEQCQETGASLVLLGKKKKKEEEGEGKKRDGEGGAGGDEEKEQSHRPFLMLQARQSEDHPHRRRRRGLECDGKVNICCKKQFFVSFKDIGWNDWIIAPSGYHANYCEGECPSHIAGTSGSSLSFHSTVINHYRMRGHSPFANLKSCCVPTKLRPMSMLYYDDGQNIIKKDIQNMIVEECGCS
notes: Bos taurus inhibin subunit beta A; Seen at around 50 kDa after co-IP and at 44 kDa in extracts not subjected to co-IP; The insert may be the cDNA fragment found in the two-hybrid screen; source: HEK 293, transfected, in lysate
With B2 as the molecule, how does the “fold induction of ProLabel enzymatic activity against the experimental control” value [2] read?
The value was 9.2 fold.
